Reference: patent US5455227A, “Biologically active lipoprotein and its use” (KabiGen AB, priority 1988, dated 1995)

Assay: In-vitro surface properties of lipoprotein-based artificial surfactant, pulsating bubble instrument (Example 4)
Type: physicochemical
Settings: phospholipid 10 mg/ml, 37° C., compared with native lipoprotein
Protocol: To this mixture surfactant lipoprotein dissolved in chloroform/methanol 1:2 (v/v) was added, giving a lipoprotein to phospholipid ratio of 1:50. The solvents were evaporated to dryness and the different surfactant preparations (phospholipids, phospholipids+lipoprotein fraction) were suspended in saline giving a phospholipid concentration of 10 or 80 mg/ml.
The surface properties of the lipoprotein-based artificial surfactant were analyzed with a pulsating bubble instrument (Surfactometer International, Toronto, Canada) (30). The surfactant preparations were suspended at a phospholipid concentration of 10 mg/ml, and the pressure gradient across the bubble wall was recorded at 37° C. during 50% cyclic surface compression at the rate of 40/min. Surface tension was assessed at maximal and minimal bubble sizes during the 5th cycle and after 1 and 5 min of pulsation.
The tracings therein represent pressure gradients across the bubble wall; max and min indicate maximal (radius 0.55 mm) and minimal (radius 0.40 mm) bubble size during pulsation at a rate of 40/min. A pressure gradient close to zero at minimal bubble size corresponds to nearly zero surface tension.

For “lipopeptide: hexapeptide H2 N-Ile-Pro-Cys-Cys-Pro-Val-COOH conjugated with palmitoyl-chloride (thioester lipopeptide) (H-IPCCPV-OH; also: palmitoyl thioester, Cys not given here)”, the “performance in the procedure of Example 4 (surface properties)” value was “performs similarly as the native lipoprotein”.
